B1: recombinant soluble integrin αvβ3 [not stated] / VEGF165 heparin-binding domain (HBD), wild type [human] (parent complex)
chain 1: FNLDVDSPAEYSGPEGSYFGFAVDFFVPSASSRMFLLVGAPKANTTQPGIVEGGQVLKCDWSSTRRCQPIEFDATGNRDYAKDDPLEFKSHQWFGASVRSKQDKILACAPLYHWRTEMKQEREPVGTCFLQDGTKTVEYAPCRSQDIDADGQGFCQGGFSIDFTKADRVLLGGPGSFYWQGQLISDQVAEIVSKYDPNVYSIKYNNQLATRTAQAIFDDSYLGYSVAVGDFNGDGIDDFVSGVPRAARTLGMVYIYDGKNMSSLYNFTGEQMAAYFGFSVAATDINGDDYADVFIGAPLFMDRGSDGKLQEVGQVSVSLQRASGDFQTTKLNGFEVFARFGSAIAPLGDLDQDGFNDIAIAAPYGGEDKKGIVYIFNGRSTGLNAVPSQILEGQWAARSMPPSFGYSMKGATDIDKNGYPDLIVGAFGVDRAILYRARPVITVNAGLEVYPSILNQDNKTCSLPGTALKVSCFNVRFCLKADGKGVLPRKLNFQVELLLDKLKQKGAIRRALFLYSRSPSHSKNMTISRGGLMQCEELIAYLRDESEFRDKLTPITIFMEYRLDYRTAADTTGLQPILNQFTPANISRQAHILLDCGEDNVCKPKLEVSVDSDQKKIYIGDDNPLTLIVKAQNQGEGAYEAELIVSIPLQADFIGVVRNNEALARLSCAFKTENQTRQVVCDLGNPMKAGTQLLAGLRFSVHQQSEMDTSVKFDLQIQSSNLFDKVSPVVSHKVDLAVLAAVEIRGVSSPDHVFLPIPNWEHKENPETEEDVGPVVQHIYELRNNGPSSFSKAMLHLQWPYKYNNNTLLYILHYDIDGPMNCTSDMEINPLRIKISSLQTTEKNDTVAGQGERDHLITKRDLALSEGDIHTLGCGVAQCLKIVCQVGRLDRGKSAILYVKSLLWTETFMNKENQNHSYSLKSSASFNVIEFPYKNLPIEDITNSTLVTTNVTWGIQP
chain 2: GPNICTTRGVSSCQQCLAVSPMCAWCSDEALPLGSPRCDLKENLLKDNCAPESIEFPVSEARVLEDRPLSDKGSGDSSQVTQVSPQRIALRLRPDDSKNFSIQVRQVEDYPVDIYYLMDLSYSMKDDLWSIQNLGTKLATQMRKLTSNLRIGFGAFVDKPVSPYMYISPPEALENPCYDMKTTCLPMFGYKHVLTLTDQVTRFNEEVKKQSVSRNRDAPEGGFDAIMQATVCDEKIGWRNDASHLLVFTTDAKTHIALDGRLAGIVQPNDGQCHVGSDNHYSASTTMDYPSLGLMTEKLSQKNINLIFAVTENVVNLYQNYSELIPGTTVGVLSMDSSNVLQLIVDAYGKIRSKVELEVRDLPEELSLSFNATCLNNEVIPGLKSCMGLKIGDTVSFSIEAKVRGCPQEKEKSFTIKPVGFKDSLIVQVTFDCDCACQAQAEPNSHRCNNGNGTFECGVCRCGPGWLGSQCECSEEDYRPSQQDECSPREGQPVCSQRGECLCGQCVCHSSDFGKITGKYCECDDFSCVRYKGEMCSGHGQCSCGDCLCDSDWTGYYCNCTTRTDTCMSSNGLLCSGRGKCECGSCVCIQPGSYGDTCEKCPTCPDACTFKKECVECKKFDRGALHDENTCNRYCRDEIESVKELKDTGKDAVNCTYKNEDDCVVRFQYYEDSSGKSILYVVEEPECPKGPD
chain 3: PCGPCSERRKHLFVQDPQTCKCSCKNTDSRCKARQLELNERTCRCDKPRR

Variants of: B1
Test: ELISA-type binding assay; HBD coated at 2.5 µg/ml; n=3; read off a plot

Variant	response [OD450]
chain 3 K25A, chain 3 R30A, chain 3 R34A	~0.3
chain 3 R8A, chain 3 R9A, chain 3 K10A	~0.25
chain 3 R8A, chain 3 R9A, chain 3 K10A, chain 3 K25A, chain 3 R30A, chain 3 R34A	~0.02

Variants of: B1
Test: ELISA-type binding assay; HBD coated at 5 µg/ml (highest point of the curve); read off a plot

Variant	response [OD450]
chain 3 K25A, chain 3 R30A, chain 3 R34A	~1.1
chain 3 R8A, chain 3 R9A, chain 3 K10A	~0.78
chain 3 R8A, chain 3 R9A, chain 3 K10A, chain 3 K25A, chain 3 R30A, chain 3 R34A	~0.11
